The values below come from US20220169728A1 (AB THERAPEUTICS, published 2022).

Residue numbers refer to the chain shown, from its start.

The target in one assay is PD-L1 (UniProt Q9NZQ7 19-290, limits assumed). Briefly: flow cytometry binding to MDA231 cells, Cy3 goat anti-human IgG detection. Here is the method:
(§1) a) MDA231 cells are prepared in media at a concentration of 1×10⁶ cells/mL. [0411] b) Dilute antibody sample to an appropriate concentration. [0412] c) Transfer 50 μL, of cells into each well of 96 well V-bottom plate. [0413] d) Transfer 50 μL, of antibodies into wells of 96 well V-bottom plate. [0414] e) Incubate cell mixture for 60 min at room temperature. [0415] f) Spin cells down and wash twice with FACS buffer. [0416] g) Re-suspend cells in 100 μL, FACS buffer containing Cy3 conjugated goat anti-human (GAH) IgG (1:500) in each well. [0417] h) Incubate at room temperature for 30 min, and wash with FACS buffer×2.

Assay [1] deals with T1, CD55 (UniProt P08174 35-353, limits assumed).
T1 construct: whole, on cells; also called CD55 on Rituximab resistant Raji cells (RRCL)
T1 sequence (looked up): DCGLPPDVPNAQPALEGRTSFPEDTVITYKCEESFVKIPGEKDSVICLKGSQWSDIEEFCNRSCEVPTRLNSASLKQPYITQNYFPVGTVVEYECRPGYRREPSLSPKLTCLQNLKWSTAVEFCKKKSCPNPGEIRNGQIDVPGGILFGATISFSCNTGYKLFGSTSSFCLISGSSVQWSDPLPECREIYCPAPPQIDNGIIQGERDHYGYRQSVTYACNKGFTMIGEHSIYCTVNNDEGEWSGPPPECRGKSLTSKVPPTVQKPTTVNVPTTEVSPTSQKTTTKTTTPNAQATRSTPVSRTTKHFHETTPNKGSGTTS
The description is as above. As to the method: as §1

A further assay concerns the target T2, CD20 (UniProt P11836 1-297, limits assumed).
T2 construct: whole, on cells; also called CD20 on Raji cells
T2 sequence (looked up): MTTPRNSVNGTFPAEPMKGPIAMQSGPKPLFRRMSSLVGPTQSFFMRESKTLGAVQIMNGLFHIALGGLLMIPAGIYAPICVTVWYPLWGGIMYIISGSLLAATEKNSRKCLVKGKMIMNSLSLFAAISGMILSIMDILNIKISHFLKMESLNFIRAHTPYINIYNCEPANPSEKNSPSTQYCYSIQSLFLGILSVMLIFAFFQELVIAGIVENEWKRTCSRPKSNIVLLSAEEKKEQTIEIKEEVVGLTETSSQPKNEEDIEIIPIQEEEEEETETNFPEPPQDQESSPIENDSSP
Nature of the assay: flow cytometry binding to CD20+ Raji cells, antibody titration, Cy3 goat anti-human IgG detection.

The target of a further assay is T3, CD3 (Homo sapiens (Human), UniProt P07766 23-207; P04234 22-171; P09693 23-182).
T3 construct: also called CD3 on Jurkat cells
Nature of the assay: flow cytometry binding to CD3+ Jurkat cells, antibody titration, Cy3 goat anti-human IgG detection. For orientation: A flow cytometer gives signals particle by particle.

Assay [2] addresses T1, CD55. Nature of the assay: binding at 5 µg/ml, the baseline itself; format not stated.

T3 sequence (P07766 23-207 limits assumed, chain 1 of 3): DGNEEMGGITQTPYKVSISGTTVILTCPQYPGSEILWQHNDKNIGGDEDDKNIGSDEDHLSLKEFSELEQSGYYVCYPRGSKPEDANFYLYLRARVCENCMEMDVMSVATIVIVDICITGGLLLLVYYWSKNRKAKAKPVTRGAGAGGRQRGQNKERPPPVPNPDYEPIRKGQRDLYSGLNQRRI
T3 sequence (P04234 22-171 limits assumed, chain 2 of 3): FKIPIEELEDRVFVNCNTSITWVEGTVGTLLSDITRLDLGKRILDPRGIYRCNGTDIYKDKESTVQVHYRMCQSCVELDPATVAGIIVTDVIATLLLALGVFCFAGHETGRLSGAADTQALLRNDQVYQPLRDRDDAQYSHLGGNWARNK
T3 sequence (P09693 23-182 limits assumed, chain 3 of 3): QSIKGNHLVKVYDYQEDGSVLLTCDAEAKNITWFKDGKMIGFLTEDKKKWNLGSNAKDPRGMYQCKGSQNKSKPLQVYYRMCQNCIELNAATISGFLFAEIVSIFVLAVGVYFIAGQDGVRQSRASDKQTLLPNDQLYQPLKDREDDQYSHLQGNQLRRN
Sequence of PD-L1 (Q9NZQ7 19-290 limits assumed): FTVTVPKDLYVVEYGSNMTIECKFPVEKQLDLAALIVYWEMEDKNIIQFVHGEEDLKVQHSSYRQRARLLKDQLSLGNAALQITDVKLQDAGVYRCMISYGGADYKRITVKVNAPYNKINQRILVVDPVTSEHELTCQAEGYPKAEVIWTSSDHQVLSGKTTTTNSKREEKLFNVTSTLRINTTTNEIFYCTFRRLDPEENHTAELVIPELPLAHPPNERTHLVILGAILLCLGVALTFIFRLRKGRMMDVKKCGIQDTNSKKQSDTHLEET

B1: Anti-PD-L1 homodimer IgG (PD-L1 v1) containing the designed VH sequence (SEQ ID NO: 4) and the common VL sequence (SEQ ID NO: 6) (antibody, V domains shown)
VH: EVQLLESGGGLVEPGGSLRLSCAASGFTFSSYIMMWVRQAPGKGLEWVSSIYPSGGITFYADTVKGRFTISRDNSKNTLYLQMNSLRAEDTAVYYCARIKLGTVTTVDYWGEGTLVTVSS
VL: QSALTQPASVSGSPGQSITISCTGTSSDVGGYNYVSWYQQHPGKAPKLMIYDVSKRPSGVSNRFSGSKSGNTASLTISGLQAEDEADYYCSSYTSASTRIFGGGTKVTVLR
notes: Homodimer IgG; also called PDL1 homodimer version 1
For B1, the binding result with PD-L1 is “binds”.

B2: Anti-CD55 homodimer IgG (CD55 v1) containing the designed VH sequence (SEQ ID NO: 5) and the common VL sequence (SEQ ID NO: 6) (antibody, V domains shown)
VH: QVKLQESGGGLVKPGGSLKLSCAASGFTFSGYGMSWIRQTPGKRLEWVATINSGGSYTYYSDSVKGRFTISRDNVKNTLYLQMSSLKSEDTAMYYCARRNGTLYYYLMDYWGRGTLVTVSS
VL: B1 VL
notes: Homodimer IgG; also called CD55 homodimer version 1
Consider B2, for which the binding result in the assay with CD55 [1] is “binds”.

B3: parental anti-CD20 IgG (Parental CD20) (antibody, V domains shown)
VH: QVQLQQPGAELVKPGASVKMSCKASGYTFTSYNMHWVKQTPGRGLEWIGAIYPGNGDTSYNQKFKGKATLTADKSSSTAYMQLSSLTSEDSAVYYCARSTYYGGDWYFNVWGAGTTVTVSA
VL: QIVLSQSPAILSASPGEKVTMTCRASSSVSYIHWFQQKPGSSPKPWIYATSNLASGVPVRFSGSGSGTSYSLTISRVEAEDAATYYCQQWTSNPPTFGGGTKLEIKR
notes: IgG; also called Rituximab; CD20 parental Ab
Usually EC50 (read off the curve) stands for the concentration needed to bring the measured effect to its halfway point. Regarding B3, the “EC50 (read off the curve)” value with CD20 is roughly 0.2 µg/mL. Moreover, the binding result in the assay with CD3 is on record as “no binding (tested: 10 µg/ml)”.

B4: parental anti-CD3 IgG (Parental CD3) (antibody, V domains shown)
VH: QVQLQQSGAELARPGASVKMSCKASGYTFTSYTMHWVKQRPGQGLEWIGYINPSSGYTKYNQKFKDKATLTADKSSSTAYMQLSSLTSEDSAVYYCARWQDYDVYFDYWGQGTTLTVSS
VL: B3 VL with I32M, F35Y, V59A, T91S, I105T
notes: IgG; also called MAb 12F6; CD3 parental Ab
As for B4, in the assay with CD20, the binding result was “no binding (tested: 10 µg/ml)”.

B5: CD3 homodimer IgG containing the designed VH sequence (SEQ ID NO: 2) and the common VL sequence (SEQ ID NO: 3) (antibody, V domains shown)
VH: B4 VH with Q1E, Q6E, Q43E, Q82E, Q111E
VL: B3 VL
notes: IgG homodimer with two VHb and two common VL; also called redesigned 12F6; antibody B
As to B5, the binding result with CD20 is listed as “no binding (tested: 10 µg/ml)”.

B6: CD20 homodimer IgG containing the designed VH sequence (SEQ ID NO: 1) and the common VL sequence (SEQ ID NO: 3) (antibody, V domains shown)
VH: B3 VH with T87R
VL: B3 VL
notes: IgG homodimer with two VHa and two common VL; also called redesigned Rituximab; antibody A
B6: the “EC50 (read off the curve)” value in the assay with CD20 is roughly 0.4 µg/mL. For the same molecule, the binding result in the assay with CD3 is on record as “no binding (tested: 10 µg/ml)”.

B7: parental anti-CD55 antibody (CD55 wt), monoclonal antibody having CD55VH (SEQ ID NO: 14 without any mutations) and the VL (SEQ ID NO: 15) (antibody, V domains shown)
VH: B2 VH with K13Q, G42D
VL: QSVLTQPPSASGSPGQSVTISCTGTSSDVGGYNYVSWYQQHPGKAPKFMIYDVSKRPSGVSNRFSGSKSGNTASLTISGVQAEDEADYYCSSYTSASTVIFGGGTKLTVL
notes: Variable domains derived from a CD55 scFv; also called CD55VH + VL; CD55 parental Ab
In the case of B7, the “Function remaining percentage (5 µg/ml)” value in the assay with CD55 [2] was 100%.
